Results: patent US20140287419A1, “Compositions Having Dicamba Decarboxylase Activity and Methods of Use” (priority 2013, published 2014)
Changes are numbered by the printed parent chain.

B1: SEQ ID NO:79: hypothetical protein PTT_18638, Pyrenophora teres f. teres 0-1 (protein)
chain: MATTTTPSTLIATLESHLTPTLAFTSPTTSPTQPALHLIPPTTLTKLRNLGPGRVKDMHMLGHSRQIISHIPVAAPPQICSRFNDAIHAATMTNTAKFSVLAVLPTDGMEAAKELARCVSKYRFVGGVIGLNRGLRINGEGWEELWGLAERLRIPIMFREMWPLAFEIVDYQHHLPYSALGPILTQLHTSHTSSPLPLVRLYLSSVFDHYPSLRLVLAHPGSLPSLVPRIESLINSIPATDKPKRSFLDVWQHNIYLTTADAQDMSSLRALLEQIPVDRVLYASNYPFEERGNELMNELRESEFLTNIEWERVAWVNAETLFNLKEAGTKEARQLTTIPSSRS
modifications: Pyrenophora teres
B2: SEQ ID NO:4: o-pyrocatechuate decarboxylase, Lactobacillus buchneri NRRL B-30929 (protein, listed as Lactobacillus buchneri)
chain: MAKVITLEEHFSSQKLGQKMAEVLPKRPIGNVSPKMQDYMQRSLPPEAELEDVTGSRIQWMDQHQISMQILSYGNQNPQNSDPKFAVELTKLANDELAKAVAKAPDRFRAFASLPVSHPTDAAAELKRGVEELGFKGAMLVRPTSQAHPFFDDPFYLPIFEAAANLNVPVYLHPSFPDSQIIDYYYSNGPWDDKVSGILGTAGYGWHTDVGIQTVRLLLSGVFEKYPNLKLISGHWGEFASFALERMDQVMYPETNLSEPISKIYRDHVYVTPSGILTEPQLKFVKDEVGIEHLLYSIDYPYIKPENSGSFIESSPLTDEEKELFAHGNAEKLLQL
B3: SEQ ID NO:5: possible o-pyrocatechuate decarboxylase, Staphylococcus aureus subsp. aureus MN8 (protein, listed as Staphylococcus aureus)
chain: MAQNNMEANQMKSITFEEHYVIEDIQKETMNAISADPKGVPMKVMLEGLEKKTGFTNADELSHHDERIQFMNNQDVQIQVLSYGNGSPSNLVGQKAIELCQKANDQLANYIAQYPNRFVGFATLPINEPEAAAREFERCINDLGFKGALIMGRAQDGFLDQDKYDIIFKTAENLGVPIYLHPAPVNSDIYQSYYKGNYPEVTAATFACFGYGWHIDVGIHAIHLVLSGIFDRYPKLNMIIGHWGEFIPFFLERMDEALFAEHLNHPVSYYFKNNFYITPSGMLTKPQFDLVKKEAGIDRILYAADYPYIEPEKLGVFLDELGLTDEEKEKISYTNGAKLLGLSSNN
B4: SEQ ID NO:16: possible o-pyrocatechuate decarboxylase, Staphylococcus aureus subsp. aureus TCH60 (protein, listed as Staphylococcus aureus)
chain: B3 chain with A131T
B5: SEQ ID NO:87: amidohydrolase, Novosphingobium sp. PP1Y (protein, listed as Novosphingobium sp.)
chain: MASDIATAADLQTGGRQGYLRIATEEAFATRDQIDVYLRMVRDGTADRGMTSLWGFYAQSPSARATQIIERLLDLGEQRLADMDAAGIDKAVLALTSPGVQPLLDMEEARRIAGNANDRLAERCAAHPDRFIGMTAVAPQDPQWSAREILRGATQLGFKGVQINSHTQGRYLDEPFFDPIFRALGDVGQPLYIHPGTPPDSMIGPLLDAGLDGAIYGFGVETGMHLLRLITAGIFDRYPDLQIMVGHMGEALPYWLYRLDYMHQAGIRSQRYERMRPLKRTIAGYFRSNVLVTCSGMAWEPAIQFARQVMGEDRVMYAMDYPYQYEADEVRALDVMDLSPESKRKFFQTNAERWFDL
B6: SEQ ID NO:89: amidohydrolase, Erwinia billingiae Eb661 (protein, listed as Erwinia billingiae)
chain: MATNRRDFLKNATAVMAGSTVFAGSSHFASAAAVEPAAVQPPRRIIALEEHFMLPEFVGYLHETQQNLRNGLVDKVVTPLSDFGKGRLEIMDKNGVDFAVLSLSGPGVQAEPDRVKAVRLARYANDKLATEMQKNPRRYGGFAHLAMQDPLAAANELERCVKQLHMQGGMINGETDGLYLDDRRYDVFWERVEALNVPIYIHPGNPPDYPHMFAGHPEMWGPVWSWAVETCSHALRLIFSGTFDRYPGARVILGHMGETLPIQLWRLDSRYQIANQTFAIKHPPSWYAKKNITITTSGVCNDAALRCALDSMGSENVMFSIDYPFESTEIAVNWLKTANITEQERNAVAWGNATSILRLGA
B7: SEQ ID NO:81: 2-amino-3-carboxymuconate-6-semialdehyde decarboxylase, Verticillium dahliae VdLs.17 (protein, listed as Verticillium dahliae)
chain: MAASTKPKVVDIHTHMYPPSYIDILTSRTAIPVVRTFPQAADPRLILLDAEQQALDAALQDPTAKPPGRPLTSHYASLDQKIHFMDTHSIDISVVSLANPWLDFIEPKEAAATARSVNDEFEAMCASQPGRLFFFAALPLTAPLPALLEAVRHVAELEHCRGVILGTSGLGSGLDDPELVPVLEAVAAAALTVFLHPHYGLPNDVWGPRASAEYGHVLPLALGFPMETTIAVARMYLAGVFDRVPALRMLLAHSGGTLPFLAGRIESCILHDGQLVAEGKVGAARRTIWDVLREQVYLDAVIYSEIGLKAAIAASGGADRLMFGTDHPFFPPLGTDEQAKKESRINAGGSRPMITGNAMINGHGGLCNHITQSDYQDVVL
B8: SEQ ID NO:92: amidohydrolase 2, Chitinophaga pinensis DSM 2588 (protein, listed as Chitinophaga pinensis)
chain: MARIVTLEEHVSFPEMTALLPEEILKNRKQSGAALQMQEKLADITGERLTSMKAAGISMQVLSVENTDVYLLPDSLAPAFAAKYNDLLADKISSHSDAFAAFAMLPMTVPEAAADELERAVKTHGFCGAMIKGLINGVFLDAPKFAPVFACAEKLGVPLYIHPGIPPKEVIDAYYSNVGDTKGPNEAIACYGWGWHSETAIHILRLLAAGIFDKYPQLNIIIGHMGEMLPMMWERSNRVFQPGNNGKNQRTLIETFRKQLYITTSGIFTQPPLQIAIDTIGIDNILFSIDYPFSSNQMGIDFLTKAALPAEQLAKMAHGNADRILKF
B9: SEQ ID NO:88: o-pyrocatechuate decarboxylase, Starkeya novella DSM 506 (protein, listed as Starkeya novella)
chain: MARKIALEEHFTTPELAGKYVARPTQSDALFADIERRLADFDELRLEMMDRAEIDLMVLSVTTPGVQGVRDTGEAIRLARGANDFLAREVQKRPSRYAGFAHLAMQDAEAAATELERAVRELGFRGALINGQTNGHYLDEDQYAPFWERVQELDVPVYLHPGNMADSPAMFAHRPELGGPIWAWTAETAAHALRLVFGGTFTRFPGAKVILGHMGETLPFLLWRLDSRREFDLGEKLAPDALPSAIIKRNIAVTTSGVCDPAPLVAALQALSDDNVMFSVDYPYEDPQLASKFIETAPIGEETRAKVCHGNAERLLGL

Assay: 14C assay with IPTG-induced recombinant E. coli cells (14CO2 capture from [14C]-carboxyl-labeled dicamba)
Settings: E. coli cell assay, 108 sequences tested

Molecule | decarboxylation activity of dicamba
B1 | showed decarboxylation activity of dicamba
B2 | showed decarboxylation activity of dicamba
B3 | showed decarboxylation activity of dicamba
B4 | showed decarboxylation activity of dicamba
B5 | showed decarboxylation activity of dicamba
B6 | showed decarboxylation activity of dicamba
B7 | showed decarboxylation activity of dicamba
B8 | showed decarboxylation activity of dicamba
B9 | showed decarboxylation activity of dicamba
